We go through one substance from patent US20050058634A1.

Experiment [1] concerns the target Soluble cation-independent mannose 6-phosphate receptor (CI-MPR) purified from fetal bovine serum, coupled to Affigel-15 beads (CI-MPR column) (bovine (fetal bovine serum)) (UniProt P08169). As to the kind of experiment: CI-MPR column fractionation; enzyme activity of fraction eluted with 5 mM M6P (starting material 1.41).
Experiment [2] shares this target. As to the kind of experiment: CI-MPR column fractionation, beta-glucuronidase activity (FIG. 6).
For experiment [3] the target is unchanged. As to the kind of experiment: CI-MPR column fractionation; enzyme activity of fraction (starting material 1.41).

Chain of UniProt P08169 (P08169 45-2313 limits assumed): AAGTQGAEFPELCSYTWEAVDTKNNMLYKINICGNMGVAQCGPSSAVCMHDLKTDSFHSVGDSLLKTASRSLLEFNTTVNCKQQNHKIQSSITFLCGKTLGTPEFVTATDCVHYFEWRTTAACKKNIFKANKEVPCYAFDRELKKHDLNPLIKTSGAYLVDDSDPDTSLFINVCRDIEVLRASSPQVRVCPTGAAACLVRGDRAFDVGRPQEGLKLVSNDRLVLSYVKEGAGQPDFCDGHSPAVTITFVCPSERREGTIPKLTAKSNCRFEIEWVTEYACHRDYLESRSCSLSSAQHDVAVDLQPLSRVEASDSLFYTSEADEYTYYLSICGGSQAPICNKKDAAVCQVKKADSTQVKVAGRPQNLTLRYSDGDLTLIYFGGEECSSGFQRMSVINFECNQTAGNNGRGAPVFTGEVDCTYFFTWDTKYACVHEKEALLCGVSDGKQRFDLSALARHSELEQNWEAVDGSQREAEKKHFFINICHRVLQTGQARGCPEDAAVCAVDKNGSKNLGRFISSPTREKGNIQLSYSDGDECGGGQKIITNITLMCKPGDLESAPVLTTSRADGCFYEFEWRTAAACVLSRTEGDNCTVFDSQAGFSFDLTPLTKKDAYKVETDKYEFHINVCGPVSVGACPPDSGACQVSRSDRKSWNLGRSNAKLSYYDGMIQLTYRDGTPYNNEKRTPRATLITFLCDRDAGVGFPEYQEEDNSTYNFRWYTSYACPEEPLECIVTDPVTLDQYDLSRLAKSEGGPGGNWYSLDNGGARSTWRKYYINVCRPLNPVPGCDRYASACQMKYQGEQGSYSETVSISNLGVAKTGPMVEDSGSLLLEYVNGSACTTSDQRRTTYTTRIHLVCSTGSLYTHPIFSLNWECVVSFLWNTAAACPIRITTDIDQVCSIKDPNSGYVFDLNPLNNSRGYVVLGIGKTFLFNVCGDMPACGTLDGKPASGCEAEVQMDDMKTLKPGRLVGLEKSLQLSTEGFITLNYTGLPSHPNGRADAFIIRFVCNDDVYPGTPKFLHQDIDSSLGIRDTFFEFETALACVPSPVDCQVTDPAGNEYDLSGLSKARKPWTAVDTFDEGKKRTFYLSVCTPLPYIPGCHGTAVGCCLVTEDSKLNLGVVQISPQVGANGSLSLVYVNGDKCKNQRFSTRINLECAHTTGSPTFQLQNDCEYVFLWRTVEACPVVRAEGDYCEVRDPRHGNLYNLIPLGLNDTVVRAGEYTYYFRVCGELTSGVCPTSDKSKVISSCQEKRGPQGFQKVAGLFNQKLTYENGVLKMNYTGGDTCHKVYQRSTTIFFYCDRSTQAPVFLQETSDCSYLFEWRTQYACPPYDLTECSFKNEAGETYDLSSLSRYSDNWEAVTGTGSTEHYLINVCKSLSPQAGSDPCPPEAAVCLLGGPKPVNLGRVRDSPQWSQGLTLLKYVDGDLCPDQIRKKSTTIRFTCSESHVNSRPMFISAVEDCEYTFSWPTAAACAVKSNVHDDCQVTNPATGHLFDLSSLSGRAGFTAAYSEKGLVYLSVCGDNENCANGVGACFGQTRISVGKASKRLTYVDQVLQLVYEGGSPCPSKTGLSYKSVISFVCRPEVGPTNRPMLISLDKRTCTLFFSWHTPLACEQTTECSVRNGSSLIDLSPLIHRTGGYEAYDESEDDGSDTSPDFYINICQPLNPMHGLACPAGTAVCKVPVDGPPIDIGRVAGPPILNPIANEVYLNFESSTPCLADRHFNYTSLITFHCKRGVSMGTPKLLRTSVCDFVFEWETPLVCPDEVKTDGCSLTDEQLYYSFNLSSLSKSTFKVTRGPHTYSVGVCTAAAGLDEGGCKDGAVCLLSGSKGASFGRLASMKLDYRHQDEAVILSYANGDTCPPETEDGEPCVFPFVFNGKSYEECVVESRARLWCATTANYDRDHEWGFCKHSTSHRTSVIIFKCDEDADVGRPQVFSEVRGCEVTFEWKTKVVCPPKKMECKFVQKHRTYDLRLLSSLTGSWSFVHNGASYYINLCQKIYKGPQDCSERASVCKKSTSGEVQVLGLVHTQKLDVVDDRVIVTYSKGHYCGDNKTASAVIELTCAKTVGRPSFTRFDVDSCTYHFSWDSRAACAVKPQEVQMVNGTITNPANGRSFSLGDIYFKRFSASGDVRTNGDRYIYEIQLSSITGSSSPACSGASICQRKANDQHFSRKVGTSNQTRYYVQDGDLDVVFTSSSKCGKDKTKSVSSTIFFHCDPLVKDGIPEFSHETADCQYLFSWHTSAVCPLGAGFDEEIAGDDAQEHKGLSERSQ

Turning to “oxidized beta-glucuronidase conjugated with phosphopentamannose-hydrazine (enzyme)”, the O.D. at 400 nm (beta-glucuronidase activity in M6P elution, bound) in experiment [1] was 0.06 OD 400 nm. Further, in experiment [2], the percent of starting activity in the M6P elution fraction came out at 5% and the percent of starting activity in the flow through was 19%. In experiment [3], this substance registered an O.D. at 400 nm (beta-glucuronidase activity in column flow-through, unbound) of 0.27 OD 400 nm and an O.D. at 400 nm (beta-glucuronidase activity in final wash) of 0 OD 400 nm.
